From paper doi:10.1101/2025.05.18.654456

Biological target: F-actin (actin purified from rabbit white skeletal muscle, polymerised) (rabbit), P68135
Assay: co-sedimentation; various concentrations of His-α-actinin in A50 buffer (50 mM HEPES-KOH pH 7.6, 50 mM KCl, 5 mM MgCl2, 1 mM EGTA) mixed with 10 μM G-actin on ice, 25°C for 60 min to polymerise actin, centrifuged at 100,000 ×g for 10 min at 25°C; supernatant and pellet on SDS-PAGE, Coomassie; model fitting; apparent dissociation constant
Conditions: remark: other sources report otherwise

Kd: 1400 nM
B1: Recombinant human α-actinin I (6×His-tagged), P12814 1-892 (natural protein)
chain: MDHYDSQQTNDYMQPEEDWDRDLLLDPAWEKQQRKTFTAWCNSHLRKAGTQIENIEEDFRDGLKLMLLLEVISGERLAKPERGKMRVHKISNVNKALDFIASKGVKLVSIGAEEIVDGNVKMTLGMIWTIILRFAIQDISVEETSAKEGLLLWCQRKTAPYKNVNIQNFHISWKDGLGFCALIHRHRPELIDYGKLRKDDPLTNLNTAFDVAEKYLDIPKMLDAEDIVGTARPDEKAIMTYVSSFYHAFSGAQKAETAANRICKVLAVNQENEQLMEDYEKLASDLLEWIRRTIPWLENRVPENTMHAMQQKLEDFRDYRRLHKPPKVQEKCQLEINFNTLQTKLRLSNRPAFMPSEGRMVSDINNAWGCLEQVEKGYEEWLLNEIRRLERLDHLAEKFRQKASIHEAWTDGKEAMLRQKDYETATLSEIKALLKKHEAFESDLAAHQDRVEQIAAIAQELNELDYYDSPSVNARCQKICDQWDNLGALTQKRREALERTEKLLETIDQLYLEYAKRAAPFNNWMEGAMEDLQDTFIVHTIEEIQGLTTAHEQFKATLPDADKERLAILGIHNEVSKIVQTYHVNMAGTNPYTTITPQEINGKWDHVRQLVPRRDQALTEEHARQQHNERLRKQFGAQANVIGPWIQTKMEEIGRISIEMHGTLEDQLSHLRQYEKSIVNYKPKIDQLEGDHQLIQEALIFDNKHTNYTMEHIRVGWEQLLTTIARTINEVENQILTRDAKGISQEQMNEFRASFNHFDRDHSGTLGPEEFKACLISLGYDIGNDPQGEAEFARIMSIVDPNRLGVVTFQAFIDFMSRETADTDTADQVMASFKILAGDKNYITMDELRRELPPDQAEYCIARMAPYTGPDSVPGALDYMSFSTALYGESDL
